Experimental data reported in publication PMC12450465, “Oligomerization and exocyst coupling underlie Spa2-mediated focusing of polarized growth in fission yeast” (Journal of Cell Science, 2025).

T1: MBP–Pos1 (S. pombe, UniProt O13743 1-269)
T1 construct: Pos1, S. pombe; source: Rosetta2(DE3)pLysS bacteria, purified on amylose beads, eluted with 10 mM maltose; not shown: MBP, N-terminal, kept
T1 sequence (looked up): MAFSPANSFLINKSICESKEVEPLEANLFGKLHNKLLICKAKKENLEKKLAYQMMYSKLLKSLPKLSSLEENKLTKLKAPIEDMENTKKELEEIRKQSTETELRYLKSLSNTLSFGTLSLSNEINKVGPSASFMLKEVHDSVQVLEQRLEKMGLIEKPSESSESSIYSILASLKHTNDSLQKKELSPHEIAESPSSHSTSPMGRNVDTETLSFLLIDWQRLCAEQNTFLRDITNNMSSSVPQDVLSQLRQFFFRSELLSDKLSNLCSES

B1: FLAG–Spa2(200–360) (domain or fragment, S. pombe, UniProt O42869 200-360, looked up)
chain: NTVQANNSSTSSLSQGAQTGIDSSSNYLSRIEMLESSLAKSNSLLDSSKSEMEALKAKSISDATKHKNEIFQLEEKLHEASHEAEISIKKLNDAENRIKELENNPTLSFNPELEKNLKLMQELIVAESSKTQHIVELESCIDSLKAETERWKKVAINAKSA
notes: also called Spa2(200–360)–FLAG
B2: GST–Spa2(305–360) (domain or fragment, S. pombe, UniProt O42869 305-360, looked up)
chain: TLSFNPELEKNLKLMQELIVAESSKTQHIVELESCIDSLKAETERWKKVAINAKSA
notes: not shown: GST, N-terminal, kept
B3: His6–Pos1 (natural protein, S. pombe, UniProt O13743 1-269, looked up)
chain: T1 sequence (looked up)
notes: Pos1, S. pombe; also called His6-tagged Pos1; source: Rosetta2(DE3)pLysS bacteria (pETDuet); alone: purified on nickel magnetic beads; not shown: His6, N-terminal, kept

Legend:
His6–Pos1 = molecular target: B3; assay: SEC; Superose 6 10/300 GL, 0.5 ml/min, 4°C, 10 mM Tris-HCl pH 7.5, 150 mM NaCl, 0.5 mM EDTA; each protein alone or the co-purified complex; sizes estimated from calibration standards; settings: both partners purified
MBP–Pos1 = molecular target: T1, MBP–Pos1; assay: pull-down; GST proteins left on beads, incubated with eluted MBP proteins in GST buffer for 40 min at 4°C; washed three times; SDS-PAGE, Coomassie Blue; settings: both partners purified
FLAG–Spa2(200–360) = molecular target: B1; assay: pull-down; co-purification: His6–Pos1 and FLAG–Spa2(200–360) co-produced in bacteria with a dual expression system, purified on DYKDDDDK Fab-Trap agarose, eluted with 3×FLAG peptide; SDS-PAGE, Coomassie Blue; settings: partners not purified

B1
binding result (His6–Pos1): binds

B2
binding result (MBP–Pos1): binds

B3
stoichiometry N (FLAG–Spa2(200–360)): ~1
